Amyloid nucleation score data for 139 substances are collected here from the supplement of paper PMC12042874.

± gives the uncertainty stated by the source.

A short description of this data set: amyloid nucleation score (Sup35N fusion, yeast selection) (log enrichment); library NNK2; higher = more nucleation; inactive = no reads after selection. The procedure, abridged: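 The nucleation score, computed with DiMSum, is the log enrichment of output over input reads, centred on the mode score of non-aggregating sequences. Sequences with under 100 input reads were dropped. Reads were generated by Illumina sequencing of plasmid inserts from psi-negative yeast with Sup35N fused to peptides of 20 random codons, induced with 100 μM copper sulfate for 24 hours and grown 7 days at 30°C on medium lacking adenine and uracil.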
ERGGIYWHVGRFSPDSEVTF: the amyloid nucleation score was -0.27 ± 0.76.
In turn, ERLGSLFNDGQANS yielded an amyloid nucleation score of 0.21 ± 0.41.
With ERLRSLKDNIMNFCKSRLGL, the amyloid nucleation score result was “inactive”.
On to ERTCSIRDPNRDIPGFPFSY, for which the amyloid nucleation score entry was “inactive”.
For ERTMF, the amyloid nucleation score is 0.396 ± 0.3.
The substance ESHFCLLATVMKDNLTVGSM gave an amyloid nucleation score of -0.578 ± 0.45.
As for ESIGVINCYWIWATSIPLEG, the amyloid nucleation score entry was “inactive”.
For the substance ESILKHSMPSYGFFLF, the amyloid nucleation score entry is “inactive”.
Substance ESKVAIA registered an amyloid nucleation score of -0.247 ± 0.24.
On to ESLWMRTLMNVHYSDFRVTV, for which the amyloid nucleation score was -0.174 ± 0.22.
In turn, ESPTVCPANF yielded an amyloid nucleation score of -0.248 ± 0.65.
With ESYCAC, the amyloid nucleation score came to 1.55 ± 0.28.
Under ESYKCVFRLIDWNIDYILTV stands 0.855 ± 0.57; under ETCSAVFIN, 0.041 ± 0.62; under ETESG, 0.72 ± 0.38.
Next, ETHIITCLRYRRRMARPHRY: “inactive”; ETMIHTPQELYVMYSPLTQQ: 6.263 ± 0.051; ETPLTGLRNPSLNQCLMELM: 0.232 ± 0.5.
Regarding EVADSRKVSSATWSISSNQR, the amyloid nucleation score came out at 1.41 ± 0.4.
Under EVEIVAWFGLHHSWWH stands 3.25 ± 0.08; under EVLTVYFARRFVESSGRGTG, 2.38 ± 0.13.
EVVLFF had an amyloid nucleation score of -1.35 ± 0.62.
For EYCACTFDWWGYQGCCD, the amyloid nucleation score was -1.04 ± 0.63.
With EYFTYVSAVWKSWCTYGGPA, the amyloid nucleation score is 0.529 ± 0.38.
The substance EYSRVLTGVFLIQSYCKFGN showed an amyloid nucleation score of -0.219 ± 0.2.
The substance EYVRFYLMGISWEAEKSHAL yielded an amyloid nucleation score of 4.23 ± 0.11.
For the substance FACNLGFMTSSFMRWSNTSA, the amyloid nucleation score amounted to 0.356 ± 0.33.
Substance FADTKDEGLYFGLMALLLEV had an amyloid nucleation score of 0.016 ± 0.65.
Under FAFAINRFCDSRRPVLCYWD stands -1.21 ± 1.1.
With FAFIYVIT, the amyloid nucleation score result was “inactive”.
As for FAIDMRYVGGQGCCILYIRR, the amyloid nucleation score is 0.075 ± 0.44.
FAIRYTVMTLFCIRLGLLKV gave an amyloid nucleation score of -0.707 ± 0.27.
Next, FAMRTSKKVSRTTAGGTDPF: -0.696 ± 0.54; FASALNYTLYWSSSLTLFAL: 2.54 ± 0.067.
In the case of FCCSKLAPRTGYYSF, the amyloid nucleation score came to 7.12 ± 0.066.
In turn, FCDALQISSYTSENYGIVWS had an amyloid nucleation score of -0.685 ± 0.36.
FCDFY returned an amyloid nucleation score of -1.2 ± 0.41.
With FCGFMGTAPHMRPYVMPWLR, the amyloid nucleation score came out at 0.816 ± 0.46.
Under FCGIGSPHYGRSAALQLRLM stands 0.708 ± 0.37.
As to FCISFYTNIPSDS, the amyloid nucleation score was -0.836 ± 0.55.
In turn, FCKFMSCESRPCNIMKCWGV registered an amyloid nucleation score of 0.276 ± 0.6.
FCLLIGLLFTYWLSINFAIT: the amyloid nucleation score result was “inactive”.
FCLTVLVV returned an amyloid nucleation score of 4.18 ± 0.11.
In the case of FCPRGFTLSSKFLCLNSLRM, the amyloid nucleation score was -0.344 ± 0.33.
Consider FCSSFEEYICLNYVIRSEWM, for which the amyloid nucleation score is 3.82 ± 0.095.
Under FCVIPIKGQRSLHIPVQLFG stands -1.07 ± 0.76; under FDGRETQENGNSYMCEGW, 0.419 ± 0.5; under FDVESMSNDLMAQWHKMLAC, -0.452 ± 0.48.
The substance FDVVIGMFVNLITRSKCGEW had an amyloid nucleation score of 1.61 ± 0.53.
As to FDWNVDDYTFIYDN, the amyloid nucleation score was -2.38 ± 0.75.
On to FDWQRLMG, for which the amyloid nucleation score is 0.196 ± 0.64.
For FEACVTGMLSDRF, the amyloid nucleation score is -0.871 ± 0.41.
In turn, FEFSPQSRCTGFLSVVCMVE came in with an amyloid nucleation score of 0.042 ± 0.5.
FESTAGTDKLRTEHLDPFAD: the amyloid nucleation score result was “inactive”.
The substance FEYNRF returned an amyloid nucleation score of 0.691 ± 0.8.
FFCGMRPYVLVNCLCVFREN gave an amyloid nucleation score of 6.374 ± 0.029.
Next, FFFFTNRVTKAVSYGYLMDD: -0.491 ± 0.63; FFGICDVYSDMNFPIYTAY: “inactive”; FFGLFFNFLLMLINLPKCIV: -1.78 ± 0.75.
Consider FFLAPKGKTSYGRGN, for which the amyloid nucleation score result was “inactive”.
The substance FFMLYYGYLLSVRDSCSLCI returned an amyloid nucleation score of -0.017 ± 0.76.
In turn, FFMPKGTLRSIGSLFR registered an amyloid nucleation score of -1.65 ± 1.1.
Next, FFQGSVSLCFQASHQWSFLI: 3.06 ± 0.11; FFRGDVQYWRLILKYLCLLM: -1.28 ± 0.49.
FFRVRPFISYYWHTLLSVLW returned an amyloid nucleation score of -1.24 ± 1.1.
FFSDVIRFWNKHTCKINLLR displayed an amyloid nucleation score of -1.33 ± 1.
Substance FFSNRNCLE returned an amyloid nucleation score of -1.34 ± 0.64.
Take FFSRFERPLQCNIFKL: the amyloid nucleation score is 4.13 ± 0.12.
Substance FFSRTKYDSSRLKPWGMDIS showed an amyloid nucleation score of 0.523 ± 0.64.
For FFSVSNDHPSFFPANVGEVH, the amyloid nucleation score turned out to be 1.74 ± 0.25.
The substance FFTLVVTVLPRRFYRFNYR yielded an amyloid nucleation score of 0.043 ± 1.
Substance FFVKNASSSFFLLKRLSWT returned an amyloid nucleation score of -0.59 ± 1.1.
As for FFWNAGCSELFGEGHYNSLL, the amyloid nucleation score result is “inactive”.
Next, FFWYWYASYEHARTSYSIRV: “inactive”.
Under FGAFVYWVFSIAYTLSRGSR stands -1.03 ± 0.6; under FGDSDRMRAGRLWFMWSLVA, 0.639 ± 0.35.
In turn, FGESTSEGYA showed an amyloid nucleation score of 3.33 ± 0.12.
With FGFIYGTRVEGLSIVSRQSR, the amyloid nucleation score worked out at 2.36 ± 0.14.
The substance FGISSNATRDWRLFDHRAVG gave an amyloid nucleation score of 0.637 ± 0.47.
For the substance FGKVRESCCLLAY, the amyloid nucleation score was 0.489 ± 0.3.
Regarding FGLMLRTS, the amyloid nucleation score is 0.062 ± 0.41.
The substance FGLSITECGWVVLCMVWVPR registered an amyloid nucleation score of 0.246 ± 0.17.
Consider FGLVHRIPRFVLWILSLGSG, for which the amyloid nucleation score is -0.012 ± 1.1.
In turn, FGLYRVRGRSEYRVDHTGWG came in with an amyloid nucleation score of 0.534 ± 0.51.
For FGMFM, the amyloid nucleation score is -0.228 ± 0.32.
Turning to FGNALA, the amyloid nucleation score is -1.15 ± 0.61.
Turning to FGNVMMTDAV, the amyloid nucleation score is -0.631 ± 0.46.
Consider FGQIRCWYTMICYGQDIGFT, for which the amyloid nucleation score came out at 6.37 ± 0.047.
For the substance FGRRYIMLRKYIDVIDLSIH, the amyloid nucleation score was -0.843 ± 0.76.
FGSIHGGRDEGPFLLGSSNV: the amyloid nucleation score was -0.675 ± 1.1.
FGVRDDILDSWCCTVCFSGK registered an amyloid nucleation score of 0.369 ± 0.65.
Turning to FGYYQLYNDQGGYYPMSSAS, the amyloid nucleation score entry is “inactive”.
The substance FHEDRERGTIFDEFMIFRN yielded an amyloid nucleation score of -0.945 ± 0.76.
With FHINAFISTWFSDNFCFCDY, the amyloid nucleation score is 1.31 ± 0.22.
Turning to FHIQTRCMCGGMRYIFYVWY, the amyloid nucleation score came to 0.432 ± 0.8.
Regarding FHPPTGPPYINEMIGASTDR, the amyloid nucleation score was -0.069 ± 0.27.
For FHPVWSLRKLFDCPDWTLAR, the amyloid nucleation score worked out at 1.23 ± 0.12.
Next, FHYRFFVVMIRGCSFWHFQL: -1.57 ± 0.49; FIAGLS: -0.734 ± 0.76.
FICYNTRRVVCIYLRL came in with an amyloid nucleation score of 0.456 ± 0.74.
On to FIDPGHFTLDLGCSPPESEV, for which the amyloid nucleation score was 4.5 ± 0.085.
Substance FIDVHMEYRDKTRCWLVLVL registered an amyloid nucleation score of -0.891 ± 0.78.
Under FIEHT stands -0.716 ± 0.45; under FIIDWSVKFGICSICLAT, 5.448 ± 0.042; under FILDAVGNFFCFVRHTTPQV, 0.106 ± 1.
Substance FILQQAYGDWFTVDSNSCIM had an amyloid nucleation score of -1.64 ± 1.1.
As to FILVYTRPTLESLGEWWIRC, the amyloid nucleation score is -0.628 ± 0.63.
Next, FIMCSDYPYHITPYPWLGPG: -0.59 ± 0.37; FINCSHQCHSIGIRVLLNCR: 0.915 ± 0.19; FIPYKYAVHSS: 0.166 ± 0.62.
FISHIYLNESQQKSSALNTL gave an amyloid nucleation score of -1.32 ± 0.53.
FISNYLMPV had an amyloid nucleation score of 2.1 ± 0.12.
Take FISRVMVSGVLTGLAWPM: the amyloid nucleation score was determined as 0.151 ± 0.43.
Under FISSMGRVW stands -1 ± 0.55; under FITHKDYLFAGQ, -1.16 ± 0.76; under FITNFGACRYCCRWHM, 6.184 ± 0.042.
On to FIVCALIKEHILTYPGKVFV, for which the amyloid nucleation score entry is “inactive”.
FIYCVTFVDDCRYVINLRGT yielded an amyloid nucleation score of 7.964 ± 0.079.
FIYQFHVVFLVCQGHNNLYT had an amyloid nucleation score of 3.6 ± 0.071.
As for FKFTWRTFESNNLMVRVWLL, the amyloid nucleation score was -1.29 ± 0.55.
Under FKFYSRSAYSHHRFSIYCDR stands -1.22 ± 1.1.
Consider FKILCFSHGNNRM, for which the amyloid nucleation score came out at 2.07 ± 0.19.
Regarding FKLFMLSSFSLMM, the amyloid nucleation score stood at 0.182 ± 1.1.
FKNQGDLQTCLLFD showed an amyloid nucleation score of -0.012 ± 0.79.
Regarding FKPLGTTEGIYTPVMYSYRG, the amyloid nucleation score was -0.6 ± 0.27.
Take FKVLVSLALSRECS: the amyloid nucleation score is -0.75 ± 0.48.
FLDAFFFGWDVVVRVYSSAP registered an amyloid nucleation score of -0.153 ± 1.1.
FLEFLDTMWW: the amyloid nucleation score is -0.233 ± 0.56.
Substance FLFFGVGMMCEARDAPMVAF displayed an amyloid nucleation score of 0.073 ± 1.1.
Regarding FLFTQGRLGGGYIVEYLCQL, the amyloid nucleation score came to 3.3 ± 0.15.
In the case of FLGVFSYASSMIISVKRERS, the amyloid nucleation score was 4.1 ± 0.095.
Next, FLGYIKSLCMYYRRSGMINA: -2.17 ± 0.62; FLKSVSVRVGVILQAHAQEV: 0.375 ± 0.57; FLLSISNRVDMFIFVLHHFT: “inactive”.
As to FLMFQNGCFLNDILVLRNAR, the amyloid nucleation score is -0.472 ± 0.26.
As for FLMYFVNR, the amyloid nucleation score worked out at 2.83 ± 0.055.
Next, FLNHCDYCVVKSRLVDMKLN: -0.296 ± 0.76; FLRIVSNVLKWQRA: 2.83 ± 0.069.
The substance FLRWRDKWHG came in with an amyloid nucleation score of 0.861 ± 0.29.
